Reference: PMC4838380 (Nucleic Acids Research, 2016)

Target: the molecule itself
Experiment: SEC

B1: Endonuclease MS from Thermococcus kodakarensis (TkoEndoMS), protein encoded by TK1898 (enzyme, UniProt Q5JER9 1-252, looked up)
chain: MSKDKVTVITSPSTEELVSLVNSALLEEAMLTIFARCKVHYDGRAKSELGSGDRVIIVKPDGSFLIHQSKKREPVNWQPPGSRVRLELRENPVLVSIRRKPRETLEVELEEVYMVSVFRAEDYEELALTGSEAEMAELIFENPEVIEPGFKPLFREKAIGTGIVDVLGRDSDGNIVVLELKRRRAELHAVRQLKSYVEILREEYGDKVRGILVAPSLTSGAKRLLEKEGLEFRKLEPPKRDSKKKGRQKTLF
  stoichiometry N: 2
